Here are results for three molecules from publication PMC6200646 (Journal of immunology (Baltimore, Md. : 1950), 2018).

Series [1] concerns the target T1, biot-mCD25(22-186)-BioP-TVMV-His, His cleaved (mouse, UniProt P01590 22-186, biotin).
T1 sequence (looked up): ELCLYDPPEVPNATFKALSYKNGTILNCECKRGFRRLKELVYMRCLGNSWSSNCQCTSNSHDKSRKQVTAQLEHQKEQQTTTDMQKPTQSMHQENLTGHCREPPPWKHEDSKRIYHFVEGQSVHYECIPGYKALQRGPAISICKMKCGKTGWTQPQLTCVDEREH
In words: SPR. On the technique in general: Surface plasmon resonance follows binding to a sensor surface in real time, without labels.

The series “SEC-MALS” deals with the molecule itself. Kind of series: SEC-MALS. (In general: Size exclusion chromatography separates by hydrodynamic size, large species first.)
The target of series [2] is T2, mCD122(27-241)-hFc-D/mCD132(23-263)-hFc-K heterodimeric Fc fusion (mouse, UniProt P16297 27-241; P34902 23-263).
T2 sequence (looked up) 1: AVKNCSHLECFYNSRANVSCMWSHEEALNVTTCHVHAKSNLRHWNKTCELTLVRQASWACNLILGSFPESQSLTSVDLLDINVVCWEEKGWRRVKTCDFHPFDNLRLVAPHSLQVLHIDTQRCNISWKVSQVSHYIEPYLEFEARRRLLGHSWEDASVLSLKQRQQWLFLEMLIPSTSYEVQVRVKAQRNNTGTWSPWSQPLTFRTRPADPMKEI
T2 sequence (looked up) 2: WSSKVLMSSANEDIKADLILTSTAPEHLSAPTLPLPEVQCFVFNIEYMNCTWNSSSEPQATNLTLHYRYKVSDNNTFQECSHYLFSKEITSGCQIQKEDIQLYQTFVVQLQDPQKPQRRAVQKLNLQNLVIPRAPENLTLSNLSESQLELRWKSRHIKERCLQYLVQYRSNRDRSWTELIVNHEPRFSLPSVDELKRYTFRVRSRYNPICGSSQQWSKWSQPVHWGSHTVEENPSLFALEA
Kind of series: SPR.

Series [3] has as its target T3, human CD25, captured for SPR (human, UniProt P01589 22-240).
T3 sequence (looked up): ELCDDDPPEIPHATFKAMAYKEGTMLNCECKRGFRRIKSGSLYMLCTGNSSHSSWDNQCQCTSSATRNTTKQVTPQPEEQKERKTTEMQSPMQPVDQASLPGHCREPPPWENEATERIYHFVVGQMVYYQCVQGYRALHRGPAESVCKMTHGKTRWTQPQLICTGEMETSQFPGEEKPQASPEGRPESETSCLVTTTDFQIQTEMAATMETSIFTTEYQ
Kind of series: SPR.

B1: mIL-2/hCD25 mouse/human chimeric fusion protein with the 12 amino acid (G3S)3 linker (other, mouse | human)
chain: APTSSSTSSSTAEAQQQQQQQQQQQQHLEQLLMDLQELLSRMENYRNLKLPRMLTFKFYLPKQATELKDLQCLEDELGPLRHVLDLTQSKSFQLEDAENFISNIRVTVVKLKGSDNTFECQFDDESATVVDFLRRWIAFCQSIISTSPQGGGSGGGSGGGSELCDDDPPEIPHATFKAMAYKEGTMLNCECKRGFRRIKSGSLYMLCTGNSSHSSWDNQCQCTSSATRNTTKQVTPQPEEQKERKTTEMQSPMQPVDQASLPGHCREPPPWENEATERIYHFVVGQMVYYQCVQGYRALHRGPAESVCKMTHGKTRWTQPQLICTGEMETSQFPGEEKPQASPEGRPESETSCLVTTTDFQIQTEMAATMETSIFTTEYQGG
modifications: glycosylated
Consider B1, for which the “fold stronger affinity than mIL-2/mCD25 to mCD25” value in series [1] stood at 10 fold. The “stoichiometry N” value in “SEC-MALS” came to 2. Moreover, the “fold weaker binding than mIL-2 to mIL-2Rβ/γc” value in series [2] worked out at 45 fold.

B2: mouse IL-2 (ligand, UniProt P04351 21-169, looked up)
chain: APTSSSTSSSTAEAQQQQQQQQQQQQHLEQLLMDLQELLSRMENYRNLKLPRMLTFKFYLPKQATELKDLQCLEDELGPLRHVLDLTQSKSFQLEDAENFISNIRVTVVKLKGSDNTFECQFDDESATVVDFLRRWIAFCQSIISTSPQ
B2: the “fold weaker Kd than mIL-2 to mCD25” value in series [3] is about 234 fold.

B3: mIL-2/mCD25 fusion protein with the 12 amino acid (G3S)3 linker (other, mouse)
chain: APTSSSTSSSTAEAQQQQQQQQQQQQHLEQLLMDLQELLSRMENYRNLKLPRMLTFKFYLPKQATELKDLQCLEDELGPLRHVLDLTQSKSFQLEDAENFISNIRVTVVKLKGSDNTFECQFDDESATVVDFLRRWIAFCQSIISTSPQGGGSGGGSGGGSELCLYDPPEVPNATFKALSYKNGTILNCECKRGFRRLKELVYMRCLGNSWSSNCQCTSNSHDKSRKQVTAQLEHQKEQQTTTDMQKPTQSMHQENLTGHCREPPPWKHEDSKRIYHFVEGQSVHYECIPGYKALQRGPAISICKMKCGKTGWTQPQLTCVDEREHHRFLASEESQGSRNSSPESETSCPITTTDFPQPTETTAMTETFVLTMEYKGG
modifications: glycosylated (N- and O-linked carbohydrate)
In the case of B3, the “fold weaker apparent Kd than mIL-2 to mCD25” value in series [1] is about 1000 fold. Besides, the “stoichiometry N” value in “SEC-MALS” came to 2. In addition, the “fold weaker apparent Kd than mIL-2 to mIL-2Rβ/γc” value in series [2] is about 680 fold.

What is called stoichiometry N is a count of units in the complex or per binding partner.
